Article PMC10157364 (Molecular Cancer Therapeutics, 2023)
Numbering of substitutions follows the chain as printed. Names may count otherwise.

B1: C0008 (antibody, V domains shown)
VH: EVQLLESGGGLVQPGGSLRLSCAASGFTFSIYSMNWVRQAPGKGLEWVSSIGSSGGTTYYADSVKGRFTISRDNSKNTLYLQMNSLRAEDTAVYYCAGSQWLYGMDVWGQGTTVTVSS
VL: DIQMTQSPSSLSASVGDRVTITCRSSQRIMTYLNWYQQKPGKAPKLLIFVASHSQSGVPSRFRGSGSETDFTLTISGLQPEDSATYYCQQSFWTPLTFGGGTKVEIK
notes: human IgG1 wt constant region; variable region shared with BaxB01 (PDB 6FOE); full-length light chain identical to that of imalumab; Human IgG1; also called imalumab; Bax69; source: ExpiCHO, transient expression, purified (Protein A MabSelect PrismA, HiTrap SP HP)
B2: ON103 (antibody, V domains shown)
VH: B1 VH with L5Q, W101Y
VL: B1 VL with M30L, F49Y, A51G, P80S, W93F
notes: heavy-chain variable domain of C0083: the VH of m1 with point mutations; heavy-chain constant region of an IgG1/IgG2 hybrid isotype with two point mutations (S239D/I332E) in the CH2 domain; light chain of C0083: as the light chain of m1 with point mutations in VL; Variable domains of C0083 on an IgG1/IgG2 hybrid constant region; also called second-generation anti-oxMIF mAb; lead candidate; …
B3: ON203 (antibody, V domains shown)
VH: B1 VH with L5Q, W101Y
VL: B1 VL with F49Y, A51G, W93F
notes: heavy-chain variable domain of C0090: the VH of m1 with point mutations; heavy-chain constant region of an IgG1/IgG2 hybrid isotype with two point mutations (S239D/I332E) in the CH2 domain; light chain of C0090: as the light chain of m1 with point mutations in VL; Variable domains of C0090 on an IgG1/IgG2 hybrid constant region; also called second-generation anti-oxMIF mAb; lead candidate; …

Tests used:
[1] = target: T1, mouse MIF treated with 0.2% Proclin300 (oxMIF surrogate) (Mus musculus, UniProt P34884, treated with 0.2% Proclin300 to transform MIF into an oxMIF surrogate); assay: ELISA; quantitative oxMIF ELISA: 15 nmol/L C0008, ON103 or ON203 as capture antibodies; human or mouse MIF in buffers with 0.2% Proclin300 as standard curves; EC50; conditions: both partners purified
T1 construct: mouse MIF; also called mouse oxMIF in solution; soluble mouse oxMIF; source: E. coli SHuffle T7 Express lysY, purified (DEAE flow-through, SP cation exchange, SEC or desalting)

[2] = target: T2, human MIF treated with 0.2% Proclin300 (oxMIF surrogate) (Homo sapiens, UniProt P14174, treated with 0.2% Proclin300 to transform MIF into an oxMIF surrogate); assay: SPR; Biacore 3000; antibodies amine-coupled to CM5 chips (about 2,500; 1,500; 1,000 RU); MIF at 42-666 nmol/L in HBS-EP with 0.2% Proclin300 (3 hours, room temperature), 30 uL/minute; Langmuir 1:1 model with mass transfer; mean of flow cells 2-4; conditions: both partners purified
T2 construct: human MIF; Same protein as m4, after treatment with Proclin300 (3 hours at room temperature for SPR); also called human oxMIF in solution; soluble human oxMIF; source: E. coli SHuffle T7 Express lysY, purified (DEAE flow-through, SP cation exchange, SEC or desalting)
T2 sequence (P14174 whole entry): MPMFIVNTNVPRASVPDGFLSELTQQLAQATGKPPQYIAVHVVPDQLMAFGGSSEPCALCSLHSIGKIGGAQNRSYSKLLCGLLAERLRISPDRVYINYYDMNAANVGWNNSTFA

Binder | binding result [1] | binding result [2]
B1 | binds | binds
B2 | binds | 
B3 | binds | 
